Experimental findings from patent publication US20100240066A1 (MCGILL UNIVERSITY, published 2010) are described below.

Where no end group is shown, it is not given here.

The target of experiment [1] is T1, N-cadherin/Fc chimeric protein (human, UniProt P19022 160-724).
T1 construct: range 160-724; Bought from R&D Systems; also called N-cad/Fc; human N-cadherin/Fc chimeric protein; not shown: Fc region of human IgG1
T1 sequence (looked up): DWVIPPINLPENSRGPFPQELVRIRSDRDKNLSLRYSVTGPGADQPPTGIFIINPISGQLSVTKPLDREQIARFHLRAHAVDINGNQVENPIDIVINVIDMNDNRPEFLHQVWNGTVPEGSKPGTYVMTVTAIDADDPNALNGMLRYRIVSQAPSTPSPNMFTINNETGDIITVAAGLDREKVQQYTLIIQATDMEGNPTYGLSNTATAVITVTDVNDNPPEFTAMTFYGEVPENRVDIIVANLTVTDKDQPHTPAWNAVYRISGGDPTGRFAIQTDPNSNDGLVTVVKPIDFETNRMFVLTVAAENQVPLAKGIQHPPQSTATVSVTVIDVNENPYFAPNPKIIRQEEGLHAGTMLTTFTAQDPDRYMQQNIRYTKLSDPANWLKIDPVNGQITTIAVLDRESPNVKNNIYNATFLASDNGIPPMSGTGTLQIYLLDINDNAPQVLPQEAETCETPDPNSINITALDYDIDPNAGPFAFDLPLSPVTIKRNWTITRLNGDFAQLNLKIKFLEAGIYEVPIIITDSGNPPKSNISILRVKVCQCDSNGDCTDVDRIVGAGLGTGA
Briefly: phage ELISA, 1.2 mM calcium. How it is done: The binding of each clone to the cadherin/Fc chimeric proteins was confirmed by ELISA. Wells of ProBind microtiter plates (Falcon) were coated with either N-cadherin/Fc or E-cadherin/Fc chimeric protein (100 ng/well) or human IgG1 (which contains the Fc fragment) (100 ng/well). After blocking the nonspecific sites with TBS containing 3% BSA and 1.2 mM CaCl₂ for 1 h at 37° C., phage clones (10⁹ pfu) diluted in TBST containing 3% BSA and 1.2 mM CaCl₂ (100 μl/well). Non-coated wells were also used to exclude any phage that bound to the plastic surface. After 1 h incubation at room temperature, wells were washed 3 times with TBST containing 3% BSA and 1.2 mM CaCl₂. M13 phage without any insert were used to control the non-specific binding of the phage itself to the target. Monoclonal anti-M13 antibody conjugated to horseradish peroxidase (Amersham Biosciences, Piscataway, N.J.) was diluted in TBST containing 3% BSA and 1.2 mM CaCl₂ (1:2,000) and added to each well (100 μl/well). After 1 h incubation at room temperature, wells were washed three times with TBST containing 3% BSA and 1.2 mM CaCl₂ and once with TBS containing 1.2 mM CaCl₂. Horseradish peroxidase substrate, TMB (Sigma), was added to each well (100 μl/well and after color development the reaction was stopped by addition of 100 μl 0.5 M sulphuric acid to each well. The intensity of the color was measured at 450 nm.
An ELISA was performed in the presence of either 1.2 mM calcium or 2 mM EDTA. […] The signal obtained in the presence of EDTA was lower than in the presence of calcium.

For experiment [2], the target named is T2, VE-cadherin/Fc chimeric protein (UniProt P33151 48-593).
T2 construct: Bought from R&D Systems; also called vascular endothelial (VE)-cadherin/Fc chimeric protein; not shown: Fc part not described
T2 sequence (looked up): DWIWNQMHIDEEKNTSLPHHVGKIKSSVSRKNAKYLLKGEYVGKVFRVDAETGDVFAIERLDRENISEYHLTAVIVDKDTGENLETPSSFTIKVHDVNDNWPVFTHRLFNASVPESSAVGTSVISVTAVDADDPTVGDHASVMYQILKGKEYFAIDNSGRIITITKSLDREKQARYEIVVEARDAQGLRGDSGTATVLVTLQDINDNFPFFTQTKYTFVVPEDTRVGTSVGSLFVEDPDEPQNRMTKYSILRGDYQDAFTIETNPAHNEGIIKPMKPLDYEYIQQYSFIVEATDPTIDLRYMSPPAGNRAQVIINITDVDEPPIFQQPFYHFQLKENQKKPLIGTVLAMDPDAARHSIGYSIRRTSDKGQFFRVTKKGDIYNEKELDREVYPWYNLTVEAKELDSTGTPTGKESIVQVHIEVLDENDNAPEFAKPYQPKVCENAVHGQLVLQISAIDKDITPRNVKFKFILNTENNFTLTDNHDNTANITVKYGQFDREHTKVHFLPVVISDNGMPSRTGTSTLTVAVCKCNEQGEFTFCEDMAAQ
Briefly: phage ELISA. How it is done: (§1) The phage clones shown to bind to the N-cadherin/Fc chimeric protein by ELISA were also evaluated for their ability to bind to E-cadherin/Fc and VE-cadherin/Fc chimeric proteins. The phage clones shown to bind to the E-cadherin/Fc chimeric protein by ELISA were also evaluated for their ability to bind to N-cadherin/Fc and VE-cadherin/Fc chimeric proteins. The same ELISA protocol described in the previous section was used to perform this evaluation with the exception that the wells were coated with either 100 ng N-cadherin/Fc, E-cadherin/Fc or VE-cadherin/Fc chimeric protein (R&D Systems, Minneapolis, Minn.).

The target in experiment [3] is T3, E-cadherin/Fc chimeric protein (human, UniProt P12830 155-707).
T3 construct: range 155-707; Bought from R&D Systems; also called E-cad/Fc; human E-cadherin/Fc chimeric protein; not shown: Fc region of human IgG1
T3 sequence (looked up): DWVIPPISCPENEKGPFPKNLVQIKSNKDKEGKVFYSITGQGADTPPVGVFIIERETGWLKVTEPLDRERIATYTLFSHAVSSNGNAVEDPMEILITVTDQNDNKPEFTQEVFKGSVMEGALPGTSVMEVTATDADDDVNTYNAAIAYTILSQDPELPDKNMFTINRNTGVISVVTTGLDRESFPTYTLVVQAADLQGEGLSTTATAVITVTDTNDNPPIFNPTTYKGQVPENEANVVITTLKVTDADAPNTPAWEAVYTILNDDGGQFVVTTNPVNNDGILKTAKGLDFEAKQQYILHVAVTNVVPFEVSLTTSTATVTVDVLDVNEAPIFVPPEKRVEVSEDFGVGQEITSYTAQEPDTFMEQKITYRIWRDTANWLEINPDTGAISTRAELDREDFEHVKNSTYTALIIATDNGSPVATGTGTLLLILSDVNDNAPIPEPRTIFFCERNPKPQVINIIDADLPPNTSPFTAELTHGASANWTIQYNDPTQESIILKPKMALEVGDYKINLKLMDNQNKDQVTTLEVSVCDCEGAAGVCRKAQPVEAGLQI
Briefly: phage ELISA. How it is done: as §1

The target of experiment [4] is T1, N-cadherin/Fc chimeric protein. Briefly: summary table, column Peptide Binds to N-cad/Fc; assay not named.
The target of experiment [5] is T2, VE-cadherin/Fc chimeric protein. Briefly: surface plasmon resonance (Biacore), chimera captured by anti-human IgG. How it is done:
The binding of representative peptide modulating agents to either N- or VE-cadherin/Fc chimeric proteins was assessed using a BIAcore X™ Biosensor (Pharmacia Ltd., Sweden). Goat anti-human IgG recognizing N- and VE-cadherin/Fc chimeric proteins (R&D Systems, Minneapolis, Minn.) was immobilized on a CM5 sensor chip (Biacore S51) using standard amine-coupling method at 25° C. HBS-P buffer (10 mM HEPES, 0.15 M NaCl, 0.005% p20, pH 7.4) was used as the running buffer. The carboxymethyl dextran surface was activated with a 7 min injection of a 1:1 ratio of 0.4 M EDC and 0.1 M NHS. The goat anti-human IgG (Caltag Lab.) was coupled to the surface with a 7 min injection diluted in 10 mM sodium acetate, pH 5.0 to a final concentration 80 ug/ml. Remaining activated groups were blocked with a 7 min injection of 1 M ethanolamine, pH 8.5. N- and VE-cadherin/Fc chimeric proteins were dissolved in buffer containing 50 mM Tris HCl, 150 mM NaCl, and 1.2 mM CaCl₂ pH 7.5 to a concentration of 0.2 μM and captured on spots 1 and 2 at a flow rate of 30 μl/min for 30 min with resulting density 927 RU for N-cadherin/Fc chimeric protein and 1008 RU for VE-cadherin/Fc chimeric protein. […]
(§2) The binding of the linear peptide H-[…]-NH₂ (SEQ ID NO: 16) to N- and VE-cadherin/Fc chimeric proteins was analyzed by surface plasma resonance.

The target in experiment [6] is T3, E-cadherin/Fc chimeric protein. Briefly: summary table, column Peptide Binds to E-cad/Fc; assay not named.
For experiment [7], the target named is T1, N-cadherin/Fc chimeric protein. Briefly: surface plasmon resonance (Biacore), N-cadherin/Fc captured by anti-human IgG, peptide as analyte, 1.2 mM CaCl2, 25 C. How it is done:
The binding of representative peptide modulating agents to either N- or VE-cadherin/Fc chimeric proteins was assessed using a BIAcore X™ Biosensor (Pharmacia Ltd., Sweden). Goat anti-human IgG recognizing N- and VE-cadherin/Fc chimeric proteins (R&D Systems, Minneapolis, Minn.) was immobilized on a CM5 sensor chip (Biacore S51) using standard amine-coupling method at 25° C. HBS-P buffer (10 mM HEPES, 0.15 M NaCl, 0.005% p20, pH 7.4) was used as the running buffer. The carboxymethyl dextran surface was activated with a 7 min injection of a 1:1 ratio of 0.4 M EDC and 0.1 M NHS. The goat anti-human IgG (Caltag Lab.) was coupled to the surface with a 7 min injection diluted in 10 mM sodium acetate, pH 5.0 to a final concentration 80 ug/ml. Remaining activated groups were blocked with a 7 min injection of 1 M ethanolamine, pH 8.5. N- and VE-cadherin/Fc chimeric proteins were dissolved in buffer containing 50 mM Tris HCl, 150 mM NaCl, and 1.2 mM CaCl₂ pH 7.5 to a concentration of 0.2 μM and captured on spots 1 and 2 at a flow rate of 30 μl/min for 30 min with resulting density 927 RU for N-cadherin/Fc chimeric protein and 1008 RU for VE-cadherin/Fc chimeric protein.
The linear peptide H-[…]-NH₂ (SEQ ID NO: 16) and the control linear peptide H-[…]-NH₂ (SEQ ID NO: 58) were passed over surfaces coated with captured N- and VE-cadherin/Fc chimeric proteins in running buffer containing 50 mM Tris-HCl, 150 mM NaCl, and 1.2 mM CaCl₂, pH 7.5 at concentrations ranging from 100-1.56 uM. The experiment was performed at a flow rate 90 ul/min at 25° C. […] All responses were referenced for reference surface and blank injections of running buffer.
as §2

B1: phage clone Nc 12-a3 (peptide)
peptide: KWELTYFANSFP
notes: whole phage in the assay
As to B1, the binding result in experiment [1] is “binds”; in experiment [2] it was “no binding (tested: 10^9 pfu)”; in experiment [3], “no binding (tested: 10^9 pfu)”.

B2: H-SRTLYTPSGQSK-NH2 (peptide)
peptide: H-SRTLYTPSGQSK-NH2
As to B2, the binding result is recorded as “no binding” in experiment [4] and “no binding (tested: 100-1.56 uM)” in experiment [5].

B3: phage clone Nc 12-a10 (peptide)
peptide: SWLAVWPATGAS
notes: whole phage in the assay
As for B3, the values for the binding result in experiment [1], in experiment [2] and in experiment [3] were “binds”, “no binding (tested: 10^9 pfu)” and “binds”, respectively.

B4: phage clone Nc 12-01 (peptide)
peptide: HWYITTGPVREK
notes: whole phage in the assay
For B4, the figures for the binding result in experiment [1], in experiment [2] and in experiment [3] were “binds”, “no binding (tested: 10^9 pfu)” and “no binding (tested: 10^9 pfu)”, respectively.

B5: H-WYVCVGAH-NH2 (peptide)
peptide: H-WYVCVGAH-NH2
notes: Synthetic linear peptide
Take B5: the binding result is reported as “no binding” in experiment [6] and “binds” in experiment [4].

B6: H-HWYITTGPVREK-NH2 (peptide)
peptide: H-HWYITTGPVREK-NH2
notes: Synthetic linear peptide
For B6, the figures for the binding result in experiment [6] and in experiment [4] were “no binding” and “binds”, respectively.

B7: H-SWTLYTPSGQSK-NH2 (peptide)
peptide: H-SWTLYTPSGQSK-NH2
notes: Synthetic linear peptide
Consider B7, for which, in experiment [7], the affinity, expressed as Kd, was 66 µM; the koff came out at 0.407 s⁻¹; the kon stood at 6100 M⁻¹ s⁻¹. Also, the binding result in experiment [6] was “no binding”. The binding result in experiment [5] is “no binding (tested: 100-1.56 uM)”.

B8: H-EWMIHYDSALTS-NH2 (peptide)
peptide: H-EWMIHYDSALTS-NH2
notes: Synthetic linear peptide
Turning to B8, the binding result in experiment [6] and in experiment [4] was “binds” in each case.

B9: H-SWELYYPLRANL-NH2 (peptide)
peptide: H-SWELYYPLRANL-NH2
notes: Synthetic linear peptide
For B9, the binding result in experiment [6] and in experiment [4] was “binds” in each case.

B10: H-WELRVSSP-NH2 (peptide)
peptide: H-WELRVSSP-NH2
notes: Synthetic linear peptide
B10: the binding result in experiment [6] was “no binding”; in experiment [4], “binds”.

B11: phage clone Nc 12-a6 (peptide)
peptide: EWMIHYDSALTS
modifications: not fully specified
notes: whole phage in the assay
Consider B11, for which the results for the binding result in experiment [1], in experiment [2] and in experiment [3] were “binds”, “no binding (tested: 10^9 pfu)” and “binds”, respectively.

B12: phage clone Nc 12-a1 (peptide)
peptide: NWFIDFPVYPPL
notes: whole phage in the assay
On to B12, for which the binding result in experiment [1] was “binds”; in experiment [2] it was “no binding (tested: 10^9 pfu)”; in experiment [3], “no binding (tested: 10^9 pfu)”.

B13: phage clone Nc 12-a7 (peptide)
peptide: AWQVHYSYVASS
notes: whole phage in the assay
Take B13: the figures for the binding result in experiment [1], in experiment [2] and in experiment [3] were “binds”, “no binding (tested: 10^9 pfu)” and “binds”, respectively.
